This is an account of results in paper PMC4156082.

The target of experiment [1] is Soluble RhoA (residues 1–181) (UniProt P61586). In words: SPR; Biacore 3000; His6-RhoA loaded with GDPβS (RhoA-GDP) held on a nitrilotriacetic acid chip; untagged onco-Lbc or DHαPH injected (0–5 μM); PBS pH 7.4, 1 mM MgCl2; reference lane His6-ubiquitin; constant of onco-Lbc called apparent (two sites). Background: Surface plasmon resonance follows binding to a sensor surface in real time, without labels.

Experiment [2] has the same target. In words: SPR; Biacore 3000; His6-RhoA loaded with GTPγS (RhoA-GTP) held on a nitrilotriacetic acid chip; untagged onco-Lbc or DHαPH injected (0–5 μM); PBS pH 7.4, 1 mM MgCl2; reference lane His6-ubiquitin; constant of onco-Lbc called apparent (two sites).
For experiment [3] the target is unchanged.
Experiment [4] shares this target. This is another data set of the same source.

Chain of UniProt P61586 (P61586 1-181): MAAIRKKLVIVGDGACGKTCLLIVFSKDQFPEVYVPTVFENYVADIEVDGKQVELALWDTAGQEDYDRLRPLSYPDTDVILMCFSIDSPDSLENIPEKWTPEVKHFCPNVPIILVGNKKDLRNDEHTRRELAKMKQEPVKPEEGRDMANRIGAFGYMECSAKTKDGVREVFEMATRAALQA

For “onco-Lbc (AKAP13 residues 1922–2346) (domain or fragment)”, the Kd came out at 2880 nM in experiment [1] and 2210 nM in experiment [2].
As to onco-Lbc E2001A (domain or fragment), in experiment [3], the relative activity (specific exchange activity, DH-PH = 1) (fold of DH-PH) worked out at 0.27 and the specific exchange activity (Mant-GDP on RhoA replaced by GMP-PNP) was determined as 1070 s⁻¹ M⁻¹. In addition, the GEF activity: exchange of GDP to Mant-GTP on RhoA, wild-type onco-Lbc = 100 (% of wild-type onco-Lbc) in experiment [4] turned out to be 8.4.
The corresponding values for onco-Lbc R2136G (domain or fragment) are 0.06, 230 s⁻¹ M⁻¹ and 7.4.
The corresponding values for onco-Lbc R2289A (domain or fragment) are 0.17, 680 s⁻¹ M⁻¹ and 10.9.
“AKAP-Lbc construct encompassing residues 2164–2346 (DHαPH) (from UniProt Q12802 2164-2346) (domain or fragment)”: the Kd in experiment [1] was above 50000 nM; in experiment [2], 2930 nM.
For the molecule onco-Lbc E2319A (domain or fragment), in experiment [3], the relative activity (specific exchange activity, DH-PH = 1) (fold of DH-PH) came out at 1.86 and the specific exchange activity (Mant-GDP on RhoA replaced by GMP-PNP) amounted to 7300 s⁻¹ M⁻¹. Besides, the GEF activity: exchange of GDP to Mant-GTP on RhoA, wild-type onco-Lbc = 100 (% of wild-type onco-Lbc) in experiment [4] stood at 148.
On the same counts, the results for onco-Lbc F2299A (domain or fragment) are 0.11, 440 s⁻¹ M⁻¹ and 23.3.

B1: isolated DH domain of onco-Lbc (AKAP13 residues 1992–2210) (domain or fragment)
chain: VVKRQEVIYELMQTEFHHVRTLKIMSGVYSQGMMADLLFEQQMVEKLFPCLDELISIHSQFFQRILERKKESLVDKSEKNFLIKRIGDVLVNQFSGENAERLKKTYGKFCGQHNQSVNYFKDLYAKDKRFQAFVKKKMSSSVVRRLGIPECILLVTQRITKYPVLFQRILQCTKDNEVEQEDLAQSLSLVKDVIGAVDSKVASYEKKVRLNEIYTKTDS
Take B1: in experiment [3], the relative activity (specific exchange activity, DH-PH = 1) (fold of DH-PH) was determined as 3.7 and the specific exchange activity (Mant-GDP on RhoA replaced by GMP-PNP) is 14300 s⁻¹ M⁻¹. The GEF activity: exchange of GDP to Mant-GTP on RhoA, wild-type onco-Lbc = 100 (% of wild-type onco-Lbc) in experiment [4] turned out to be 174.
